{"source": "patent US20220143148A1", "about": "“COMPOSITIONS AND METHODS FOR MODULATING CGRP SIGNALING TO REGULATE INTESTINAL INNATE LYMPHOID CELLS” (The Broad Institute, Inc., priority 2019, published 2022)", "molecules": {"B1": {"name": "OVA (protein, UniProt P01012 2-386, looked up)", "Ovalbumin": "GSIGAASMEFCFDVFKELKVHHANENIFYCPIAIMSALAMVYLGAKDSTRTQINKVVRFDKLPGFGDSIEAQCGTSVNVHSSLRDILNQITKPNDVYSFSLASRLYAEERYPILPEYLQCVKELYRGGLEPINFQTAADQARELINSWVESQTNGIIRNVLQPSSVDSQTAMVLVNAIVFKGLWEKAFKDEDTQAMPFRVTEQESKPVQMMYQIGLFRVASMASEKMKILELPFASGTMSMLVLLPDEVSGLEQLESIINFEKLTEWTSSNVMEERKIKVYLPRMKMEEKYNLTSVLMAMGITDVFSSSANLSGISSAESLKISQAVHAAHAEINEAGREVVGSAEAGVDAASVSEEFRADHPFLFCIKHIATNAVLFFGRCVSP"}}, "test_system": "small intestinal immune cells", "experiment": "Droplet-based scRNA-seq of small intestinal immune cells (LP and PP), OVA vs PBS, clustering and differential expression", "format": "in vivo, mouse", "details": "PP", "from_the_text": "To comprehensively characterize small intestinal immune cells, Applicants generated scRNA-Seq profiles for 58,067 immune cells collected from lamina propria (LP) and Peyer's patch (PP) regions at steady state and after induction of a type 2 inflammatory reaction to ovalbumin (OVA) (Brandt et al., 2003) (FIGS. 1A and 8A). To ensure sufficient representation of rare cells, Applicants combined a normalization strategy—removing by flow sorting either a portion of IgD+ naïve B cells, which are the most abundant cell type in PPs, or all CD19+ and CD3+ T cells (FIG. 8B, Methods)—with profiling of a sufficiently large number of cells number (P>0.99 to recover at least 15 cells from each cluster, Methods) by massively parallel scRNA-seq (Haber et al., 2017) (Methods). Applicants obtained 36,797 and 21,270 high quality cells passing initial filtering (Methods) from PP and LP regions, respectively.\nOverall, Applicants annotated 27 cell subsets across the two compartments, spanning T cells, B cells, ILCs, dendritic cells (DCs), myeloid cells and stromal cells, in frequencies ranging from 0.07% to 14%. Briefly, Applicants first partitioned the cells from the PP regions by unsupervised clustering (Methods) into 46 clusters, retained the 97% of cells that were robustly assigned cell identities in each cluster (Methods), assigned the cells from the LP regions to the 46 clusters using a classifier (Methods), and visualized the data with scvis (Ding et al., 2018), a deep generative model-based method (FIGS. 1B and 8C, Methods). Next, Applicants identified genes that were differentially expressed between the cells in each cluster and the remaining cells (Table 1, Methods), as well as between pairs of clusters (Table 2), to elucidate identities of similar cell types/states. Applicants excluded from downstream analysis clusters mostly consisting of contaminants from epithelium, likely doublets, or cells with a small number of Unique Molecular Identifiers (UMIs) (FIGS. 1C and 8D), or lacking distinct markers (Methods). Altogether, Applicants retained 27 clusters spanning 85% of the cells and each associated with distinct marker genes (FIG. 8E, Methods).\nTo induce allergic reaction to OVA, 6 to 7 weeks old mice were sensitized twice, two weeks apart, with 50 μg of OVA plus 1 mg of aluminum potassium sulfate adjuvant via intraperitoneal injection. Two weeks later, mice were orally administered with 50 mg of OVA on every other day for a total of five times. 1 μg of α-CGRP peptide was administered simultaneously when indicated. Mice were deprived of food for 3-4 hours in cages with wood chip bedding for limiting antigen degradation in the stomach before each intragastric challenge.\nIsolation of cells from Peyer's patches (PPs). Peyer's patches (PPs) were carefully dissected from the small intestine under a stereo microscope using a fine scissor, pierced once with a fine forcep. Tissues were digested in freshly made digestion buffer (RPMI-1640 containing 100 μg/ml Liberase™ and 50 μg/ml DNase I at 37° C. on a roto-mixer. After 15 min, tissues were very gently mixed using a 1 ml pipette. The supernatant was collected and added to ice-cold MACS buffer (pH 7.4; PBS plus 2% FCS and 2 mM EDTA). Pre-warmed (37° C.) fresh digestion buffer was added to the remaining tissues. After rotation at 37° C. for 15 min, the mixture was vigorously mixed using a 1 ml pipette for 1 min. Supernatants from the two steps were combined and passed through 70 μm filters and stained for FACS (below).\nIsolation of cells from the lamina propria (LP). The small intestines were opened longitudinally and washed in ice-cold PBS. For scRNA-seq, roughly 0.5 cm of fragments from each of the distal, middle and proximal regions without visible PPs were collected. Epithelial cells were dissociated by tissue rotation in pre-warmed (37° C.) PBS containing 10 mM EDTA at 37° C. for 15 min, followed by additional incubation on ice for 15 min. Tissues were then shaken vigorously. […]"}
{"molecule": "B1", "values": [{"measurement": "Ptprcap LN (average fold change)", "setting": "cluster ID 8, OVA vs PBS", "value": 0.276}, {"measurement": "Rab35 LN (average fold change)", "setting": "cluster ID 8, OVA vs PBS", "value": 0.478}, {"measurement": "Rac2 LN (average fold change)", "setting": "cluster ID 8, OVA vs PBS", "value": 0.169}, {"measurement": "Rel LN (average fold change)", "setting": "cluster ID 8, OVA vs PBS", "value": "−0.595"}, {"measurement": "Rgs1 LN (average fold change)", "setting": "cluster ID 8, OVA vs PBS", "value": 0.795}, {"measurement": "Rnf125 LN (average fold change)", "setting": "cluster ID 8, OVA vs PBS", "value": "−0.483"}, {"measurement": "Rnf157 LN (average fold change)", "setting": "cluster ID 8, OVA vs PBS", "value": "−0.362"}, {"measurement": "Rora LN (average fold change)", "setting": "cluster ID 8, OVA vs PBS", "value": "−0.455"}, {"measurement": "Rrad LN (average fold change)", "setting": "cluster ID 8, OVA vs PBS", "value": "−0.602"}, {"measurement": "Rsrp1 LN (average fold change)", "setting": "cluster ID 8, OVA vs PBS", "value": 0.318}, {"measurement": "Samd9l LN (average fold change)", "setting": "cluster ID 8, OVA vs PBS", "value": 0.479}, {"measurement": "Samsn1 LN (average fold change)", "setting": "cluster ID 8, OVA vs PBS", "value": "−0.280"}, {"measurement": "Sh2d1a LN (average fold change)", "setting": "cluster ID 8, OVA vs PBS", "value": 0.388}, {"measurement": "Sik1 LN (average fold change)", "setting": "cluster ID 8, OVA vs PBS", "value": "−0.527"}, {"measurement": "Skil LN (average fold change)", "setting": "cluster ID 8, OVA vs PBS", "value": "−0.410"}, {"measurement": "Sla LN (average fold change)", "setting": "cluster ID 8, OVA vs PBS", "value": 0.486}, {"measurement": "Slfn2 LN (average fold change)", "setting": "cluster ID 8, OVA vs PBS", "value": 0.342}, {"measurement": "Sp100 LN (average fold change)", "setting": "cluster ID 8, OVA vs PBS", "value": 0.330}, {"measurement": "Taf10 LN (average fold change)", "setting": "cluster ID 8, OVA vs PBS", "value": "−0.372"}, {"measurement": "Tfam LN (average fold change)", "setting": "cluster ID 8, OVA vs PBS", "value": "−0.555"}, {"measurement": "Tgif1 LN (average fold change)", "setting": "cluster ID 8, OVA vs PBS", "value": "−0.580"}, {"measurement": "Tm6sf1 LN (average fold change)", "setting": "cluster ID 8, OVA vs PBS", "value": 0.360}, {"measurement": "Traf1 LN (average fold change)", "setting": "cluster ID 8, OVA vs PBS", "value": "−0.355"}, {"measurement": "Tsc22d3 LN (average fold change)", "setting": "cluster ID 8, OVA vs PBS", "value": 0.472}, {"measurement": "Tuba4a LN (average fold change)", "setting": "cluster ID 8, OVA vs PBS", "value": "−0.361"}, {"measurement": "Txndc5 LN (average fold change)", "setting": "cluster ID 8, OVA vs PBS", "value": 0.592}, {"measurement": "Txnip LN (average fold change)", "setting": "cluster ID 8, OVA vs PBS", "value": 1.190}, {"measurement": "Ube2s LN (average fold change)", "setting": "cluster ID 8, OVA vs PBS", "value": "−0.248"}, {"measurement": "VgIl4 LN (average fold change)", "setting": "cluster ID 8, OVA vs PBS", "value": "−0.452"}, {"measurement": "Vps37b LN (average fold change)", "setting": "cluster ID 8, OVA vs PBS", "value": "−0.178"}, {"measurement": "Zc3h12a LN (average fold change)", "setting": "cluster ID 8, OVA vs PBS", "value": "−0.680"}, {"measurement": "Zfp36l2 LN (average fold change)", "setting": "cluster ID 8, OVA vs PBS", "value": 0.382}, {"measurement": "Zfp512 LN (average fold change)", "setting": "cluster ID 8, OVA vs PBS", "value": 0.523}, {"measurement": "AC125149.3 percentage of expressing cells in OVA-treated group", "setting": "cluster ID 9", "value": 0.619}, {"measurement": "Actg1 percentage of expressing cells in OVA-treated group", "setting": "cluster ID 9", "value": 1}, {"measurement": "Apobec1 percentage of expressing cells in OVA-treated group", "setting": "cluster ID 9", "value": 0.86}, {"measurement": "Basp1 percentage of expressing cells in OVA-treated group", "setting": "cluster ID 9", "value": 0.871}, {"measurement": "Cdk1 percentage of expressing cells in OVA-treated group", "setting": "cluster ID 9", "value": 0.478}, {"measurement": "Cks1brt percentage of expressing cells in OVA-treated group", "setting": "cluster ID 9", "value": 0.262}, {"measurement": "Ddit4 percentage of expressing cells in OVA-treated group", "setting": "cluster ID 9", "value": 0.241}, {"measurement": "Eif2ak3 percentage of expressing cells in OVA-treated group", "setting": "cluster ID 9", "value": 0.384}, {"measurement": "Hspa8 percentage of expressing cells in OVA-treated group", "setting": "cluster ID 9", "value": 0.995}, {"measurement": "Igha percentage of expressing cells in OVA-treated group", "setting": "cluster ID 9", "value": 0.566}, {"measurement": "Ighg3 percentage of expressing cells in OVA-treated group", "setting": "cluster ID 9", "value": 0.211}, {"measurement": "Il2 percentage of expressing cells in OVA-treated group", "setting": "cluster ID 9", "value": 0.244}, {"measurement": "Lnx2 percentage of expressing cells in OVA-treated group", "setting": "cluster ID 9", "value": 0.191}, {"measurement": "Malat1 percentage of expressing cells in OVA-treated group", "setting": "cluster ID 9", "value": 1}, {"measurement": "Mcpt1 percentage of expressing cells in OVA-treated group", "setting": "cluster ID 9", "value": 0.156}, {"measurement": "Narf percentage of expressing cells in OVA-treated group", "setting": "cluster ID 9", "value": 0.441}, {"measurement": "Nme2 percentage of expressing cells in OVA-treated group", "setting": "cluster ID 9", "value": 0.4}, {"measurement": "Rsrp1 percentage of expressing cells in OVA-treated group", "setting": "cluster ID 9", "value": 0.796}, {"measurement": "Tsc22d3 percentage of expressing cells in OVA-treated group", "setting": "cluster ID 9", "value": 0.669}, {"measurement": "Tubb5 percentage of expressing cells in OVA-treated group", "setting": "cluster ID 9", "value": 0.966}, {"measurement": "Uba52 percentage of expressing cells in OVA-treated group", "setting": "cluster ID 9", "value": 0.996}, {"measurement": "Ubb percentage of expressing cells in OVA-treated group", "setting": "cluster ID 9", "value": 0.998}, {"measurement": "Wdr89 percentage of expressing cells in OVA-treated group", "setting": "cluster ID 9", "value": 0.993}, {"measurement": "Zfp36l2 percentage of expressing cells in OVA-treated group", "setting": "cluster ID 9", "value": 0.758}, {"measurement": "AC125149.3 LN (average fold change)", "setting": "cluster ID 9, OVA vs PBS", "value": 0.342}, {"measurement": "Actg1 LN (average fold change)", "setting": "cluster ID 9, OVA vs PBS", "value": "−0.161"}, {"measurement": "Apobec1 LN (average fold change)", "setting": "cluster ID 9, OVA vs PBS", "value": 0.201}, {"measurement": "Basp1 LN (average fold change)", "setting": "cluster ID 9, OVA vs PBS", "value": "−0.559"}, {"measurement": "Cdk1 LN (average fold change)", "setting": "cluster ID 9, OVA vs PBS", "value": "−0.396"}, {"measurement": "Cks1brt LN (average fold change)", "setting": "cluster ID 9, OVA vs PBS", "value": 1.033}, {"measurement": "Ddit4 LN (average fold change)", "setting": "cluster ID 9, OVA vs PBS", "value": 0.791}, {"measurement": "Eif2ak3 LN (average fold change)", "setting": "cluster ID 9, OVA vs PBS", "value": 0.581}, {"measurement": "Hspa8 LN (average fold change)", "setting": "cluster ID 9, OVA vs PBS", "value": "−0.426"}, {"measurement": "Igha LN (average fold change)", "setting": "cluster ID 9, OVA vs PBS", "value": 0.227}, {"measurement": "Ighg3 LN (average fold change)", "setting": "cluster ID 9, OVA vs PBS", "value": 1.831}, {"measurement": "Il2 LN (average fold change)", "setting": "cluster ID 9, OVA vs PBS", "value": 0.918}, {"measurement": "Lnx2 LN (average fold change)", "setting": "cluster ID 9, OVA vs PBS", "value": 0.811}, {"measurement": "Malat1 LN (average fold change)", "setting": "cluster ID 9, OVA vs PBS", "value": "−0.269"}, {"measurement": "Mcpt1 LN (average fold change)", "setting": "cluster ID 9, OVA vs PBS", "value": 2.708}, {"measurement": "Narf LN (average fold change)", "setting": "cluster ID 9, OVA vs PBS", "value": 0.449}, {"measurement": "Nme2 LN (average fold change)", "setting": "cluster ID 9, OVA vs PBS", "value": 0.703}, {"measurement": "Rsrp1 LN (average fold change)", "setting": "cluster ID 9, OVA vs PBS", "value": "−0.274"}]}
